Assay results: patent US20240116985A1 (published 2024)
Read-outs that look alike come from different tables or passages of the source. Starred links: 1 amine or outer side, 2 acyl side, 3 side chain; linkers in the order of their positions; H or OH if unused. Positions of bridges follow the written chain, without caps; N, C: chain ends. Non-standard residues stand in square brackets, D forms with d. Primed or numbered codes have the meaning given here. PyrS2(3) = (S)-3-amino-1-((pent-4-en-1-yloxy)carbonyl)pyrrolidine-3-carboxylic acid, stapling residue, C=CCCCOC(=O)N1CC[C@@](N[*:1])(C(=O)[*:2])C1; PyrS2″ = (S)-3-amino-1-((pent-4-en-1-yloxy)carbonyl)pyrrolidine-3-carboxylic acid (stapling residue), C=CCCCOC(=O)N1CC[C@@](N[*:1])(C(=O)[*:2])C1; B5(24) = 2-amino-2-(pent-4-en-1-yl)hept-6-enoic acid, 2,2-bis(4-pentenyl)glycine (stitching residue), C=CCCCC(CCCC=C)(N[*:1])C(=O)[*:2]; B5(4) = 2,2-bis(4-pentenyl)glycine = 2-amino-2-(pent-4-en-1-yl)hept-6-enoic acid (stitching residue), C=CCCCC(CCCC=C)(N[*:1])C(=O)[*:2]; B5(20) = 2-amino-2-(pent-4-en-1-yl)hept-6-enoic acid = bis(4-pentenyl)glycine, stitching residue, C=CCCCC(CCCC=C)(N[*:1])C(=O)[*:2]; TfeGA = (S)-2-amino-3-((carboxymethyl)(2,2,2-trifluoroethyl)amino)propanoic acid, O=C([C@H](CN(CC(=O)[*:3])CC(F)(F)F)N[*:1])[*:2]; PyrS2 = (S)-3-amino-1-((pent-4-en-1-yloxy)carbonyl)pyrrolidine-3-carboxylic acid, C=CCCCOC(=O)N1CC[C@@](N[*:1])(C(=O)[*:2])C1; MorphAsn = (S)-2-amino-4-morpholino-4-oxobutanoic acid, O=C(C[C@H](N[*:1])C(=O)[*:2])N1CCOCC1; B5(3) = 2,2-bis(4-pentenyl)glycine (stitching residue), C=CCCCC(CCCC=C)(N[*:1])C(=O)[*:2]; B5″ = 2,2-bis(4-pentenyl)glycine, stitching residue, C=CCCCC(CCCC=C)(N[*:1])C(=O)[*:2]; Phe(F5) = N[C@@H](Cc1c(F)c(F)c(F)c(F)c1F)C(=O)O; Nva(5-morpholino) = N[C@@H](CCCN1CCOCC1)C(=O)O; Phe(3-COOH) = N[C@@H](Cc1cccc(C(=O)O)c1)C(=O)O; 2F3MeF = Cc1cccc(C[C@H](N[*:1])C(=O)[*:2])c1F; Phe(2-CONH2) = NC(=O)c1ccccc1C[C@H](N)C(=O)O; Phe(2-Cl) = N[C@@H](Cc1ccccc1Cl)C(=O)O; Bta = N[C@@H](Cc1csc2ccccc12)C(=O)O; Lys(iPr) = CC(C)NCCCC[C@H](N)C(=O)O; αAllylPro = C=CC[C@@]1(C(=O)O)CCCN1; tBuAla = CC(C)(C)C[C@H](N)C(=O)O; 3Thi = N[C@@H](Cc1ccsc1)C(=O)O; Cha = N[C@@H](CC1CCCCC1)C(=O)O; S8 = C=CCCCCCC[C@](C)(N)C(=O)O

T1: B-cat-Halo (UniProt P35222 1-781)
T1 sequence (looked up): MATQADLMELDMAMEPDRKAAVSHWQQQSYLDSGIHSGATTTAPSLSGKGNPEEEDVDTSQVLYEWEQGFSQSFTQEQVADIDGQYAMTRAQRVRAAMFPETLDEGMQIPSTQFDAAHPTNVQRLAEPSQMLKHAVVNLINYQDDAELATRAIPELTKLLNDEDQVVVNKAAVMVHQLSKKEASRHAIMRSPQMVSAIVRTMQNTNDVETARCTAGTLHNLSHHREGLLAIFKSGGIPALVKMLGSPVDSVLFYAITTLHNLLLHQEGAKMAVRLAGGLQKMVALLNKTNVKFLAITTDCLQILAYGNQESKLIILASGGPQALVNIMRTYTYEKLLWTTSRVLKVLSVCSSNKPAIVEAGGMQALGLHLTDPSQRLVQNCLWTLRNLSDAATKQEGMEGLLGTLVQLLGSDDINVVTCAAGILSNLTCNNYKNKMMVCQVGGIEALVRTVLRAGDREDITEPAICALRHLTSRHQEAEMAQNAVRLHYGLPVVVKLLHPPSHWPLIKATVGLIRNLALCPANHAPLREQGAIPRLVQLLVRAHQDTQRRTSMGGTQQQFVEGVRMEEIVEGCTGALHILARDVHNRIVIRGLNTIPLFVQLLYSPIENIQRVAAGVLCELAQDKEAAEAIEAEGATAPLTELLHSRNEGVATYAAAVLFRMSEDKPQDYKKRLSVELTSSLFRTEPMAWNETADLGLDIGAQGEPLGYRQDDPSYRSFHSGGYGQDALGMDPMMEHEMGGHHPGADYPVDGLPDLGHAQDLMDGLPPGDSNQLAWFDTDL

T2: B-cat-Halo (beta-catenin HaloTag construct expressed in HEK293 cells) (UniProt P35222 1-781)
T2 sequence (looked up): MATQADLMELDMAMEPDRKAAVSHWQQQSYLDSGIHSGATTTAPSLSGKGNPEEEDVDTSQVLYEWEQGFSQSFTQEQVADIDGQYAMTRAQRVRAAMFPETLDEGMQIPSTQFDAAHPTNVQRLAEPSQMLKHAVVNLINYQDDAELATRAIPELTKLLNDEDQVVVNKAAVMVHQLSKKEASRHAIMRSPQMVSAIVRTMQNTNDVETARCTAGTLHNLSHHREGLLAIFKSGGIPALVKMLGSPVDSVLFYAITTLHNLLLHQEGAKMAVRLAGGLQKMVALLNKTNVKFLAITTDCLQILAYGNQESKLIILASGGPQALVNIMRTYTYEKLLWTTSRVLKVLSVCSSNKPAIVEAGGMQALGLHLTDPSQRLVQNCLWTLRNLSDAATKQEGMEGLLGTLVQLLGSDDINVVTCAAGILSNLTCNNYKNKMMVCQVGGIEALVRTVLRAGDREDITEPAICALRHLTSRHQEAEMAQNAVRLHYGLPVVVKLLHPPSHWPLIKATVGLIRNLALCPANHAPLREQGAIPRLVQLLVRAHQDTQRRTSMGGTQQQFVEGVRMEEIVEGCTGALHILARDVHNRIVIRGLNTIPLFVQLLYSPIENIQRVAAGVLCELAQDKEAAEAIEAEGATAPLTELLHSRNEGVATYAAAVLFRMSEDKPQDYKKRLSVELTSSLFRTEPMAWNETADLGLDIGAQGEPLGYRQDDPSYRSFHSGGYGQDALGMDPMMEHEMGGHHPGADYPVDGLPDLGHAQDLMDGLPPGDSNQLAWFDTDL

T3: B-cat-Halo (UniProt P35222 1-781)
T3 sequence (looked up): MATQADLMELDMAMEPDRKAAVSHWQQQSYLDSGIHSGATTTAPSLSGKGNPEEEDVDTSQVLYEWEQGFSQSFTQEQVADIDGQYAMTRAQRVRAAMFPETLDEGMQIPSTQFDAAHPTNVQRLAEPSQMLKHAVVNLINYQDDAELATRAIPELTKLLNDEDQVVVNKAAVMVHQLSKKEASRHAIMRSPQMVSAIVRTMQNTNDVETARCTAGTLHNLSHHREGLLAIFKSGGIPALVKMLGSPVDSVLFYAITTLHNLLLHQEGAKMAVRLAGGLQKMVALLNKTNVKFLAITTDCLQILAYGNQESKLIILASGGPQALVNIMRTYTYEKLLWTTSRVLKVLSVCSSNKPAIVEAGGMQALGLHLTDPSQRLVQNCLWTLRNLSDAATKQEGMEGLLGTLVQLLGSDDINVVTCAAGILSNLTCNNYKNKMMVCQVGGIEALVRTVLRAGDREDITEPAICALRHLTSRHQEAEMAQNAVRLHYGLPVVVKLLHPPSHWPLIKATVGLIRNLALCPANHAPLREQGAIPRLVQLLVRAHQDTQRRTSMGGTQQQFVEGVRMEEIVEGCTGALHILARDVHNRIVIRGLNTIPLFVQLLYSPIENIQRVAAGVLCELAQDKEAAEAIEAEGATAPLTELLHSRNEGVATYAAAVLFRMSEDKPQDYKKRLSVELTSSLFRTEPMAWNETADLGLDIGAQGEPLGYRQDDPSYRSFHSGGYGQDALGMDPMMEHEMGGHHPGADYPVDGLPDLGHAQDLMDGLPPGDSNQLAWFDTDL

T4: full-length beta-Catenin (Uniprot ID P35222) (Homo sapiens (Human), UniProt P35222 1-781)
T4 construct: also called bCat; B-Catenin
T4 sequence: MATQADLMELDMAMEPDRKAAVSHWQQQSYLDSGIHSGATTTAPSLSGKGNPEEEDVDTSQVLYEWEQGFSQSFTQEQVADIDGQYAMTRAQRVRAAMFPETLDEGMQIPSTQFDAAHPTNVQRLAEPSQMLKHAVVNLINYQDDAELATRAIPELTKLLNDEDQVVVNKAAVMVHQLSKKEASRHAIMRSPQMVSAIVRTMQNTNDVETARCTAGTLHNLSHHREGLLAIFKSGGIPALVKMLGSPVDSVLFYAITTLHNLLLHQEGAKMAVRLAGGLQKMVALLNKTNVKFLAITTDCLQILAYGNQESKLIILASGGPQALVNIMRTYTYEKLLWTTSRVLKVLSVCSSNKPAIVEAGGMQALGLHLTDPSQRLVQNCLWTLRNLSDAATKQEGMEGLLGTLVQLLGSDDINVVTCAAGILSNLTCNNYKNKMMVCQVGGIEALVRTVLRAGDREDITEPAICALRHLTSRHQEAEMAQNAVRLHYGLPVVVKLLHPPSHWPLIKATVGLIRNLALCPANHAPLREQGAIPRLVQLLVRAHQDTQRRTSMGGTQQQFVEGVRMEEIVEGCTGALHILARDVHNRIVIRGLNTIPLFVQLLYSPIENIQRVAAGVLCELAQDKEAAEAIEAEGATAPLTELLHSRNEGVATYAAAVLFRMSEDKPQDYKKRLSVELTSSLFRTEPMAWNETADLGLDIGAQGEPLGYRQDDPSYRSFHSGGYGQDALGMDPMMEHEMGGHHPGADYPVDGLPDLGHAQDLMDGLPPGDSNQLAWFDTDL


Experiments:
[1] = biological target: T1, B-cat-Halo; experiment: cell-based or functional assay
[2] = biological target: T2, B-cat-Halo (beta-catenin HaloTag …); experiment: cell-based or functional assay
[3] = biological target: T3, B-cat-Halo; experiment: cell-based or functional assay; remark: listed apart in the source
[4] = biological target: T4, full-length beta-Catenin (Uniprot ID …); experiment: FP competition: full-length beta-catenin 10 nM + 5FAM-TCF4(10-53) 10 nM
Experimental: The plate was incubated protected from light for 60 minutes at 20° C. prior to read. Reads were performed on a CLARIOstar plate reader (BMG Labtech) in duplicate, and data were fitted to a 1:1 binding model with hill slope using an in-house script. All provided concentrations are final concentrations.

| Binder | NanoBRET Abs IC50 [2] [µM] | NanoBRET Abs IC50 [3] [µM] | further results |
| --- | --- | --- | --- |
| Ac-[αAllylPro]D[tBuAla][B5(24)]DDA[Lys(iPr)]FN[PyrS2″][Phe(2-Cl)][Bta]Q-NH2 (staple 1-4, 4-11) [I-1132] |  |  | NanoBRET Abs IC50 [1]: > 20 µM |
| Ac-[αAllylPro]D[tBuAla][B5″]DDAAFL[PyrS2(3)][Phe(F5)][Bta]Q-NH2 (staple 1-4, 4-11) [I-1185] | 26.9 |  |  |
| Ac-[αAllylPro]D[tBuAla][B5″]DDAAFL[S8][3Thi][Bta]H-NH2 (staple 1-4, 4-11) [I-1195] | 16.2 |  |  |
| Ac-[αAllylPro]D[Cha][B5(24)]DDAAFL[PyrS2″][Phe(2-Cl)][Bta]T-NH2 (staple 1-4, 4-11) [I-1139] |  |  | NanoBRET Abs IC50 [1]: 18 µM |
| Ac-[αAllylPro]D[tBuAla][B5″]DDAAFL[S8][3Thi][Bta]Q-NH2 (staple 1-4, 4-11) [I-1188] | 7.2 |  |  |
| Ac-[αAllylPro]D[tBuAla][B5(3)]D[TfeGA]AAFT[PyrS2][Phe(2-Cl)][Bta][Nva(5-morpholino)]-NH2 (staple 1-4, 4-11) [I-1609] |  | 6.7 |  |
| Ac-[αAllylPro]D[tBuAla][B5(3)]D[Phe(3-COOH)]AAFL[PyrS2″][2F3MeF][Bta][MorphAsn]-NH2 (staple 1-4, 4-11) [I-1614] |  | 6.4 |  |
| Ac-[αAllylPro]N[tBuAla][B5(4)]DT[Lys(iPr)]AFN[PyrS2]F[Bta]Q-NH2 (staple 1-4, 4-11) [I-1602] |  | > 20 |  |
| Ac-[αAllylPro]DA[B5(20)]DEAAFN[S8][Phe(2-CONH2)][Bta]H-NH2 (staple 1-4, 4-11, Stapled peptide composition) [I-513] |  |  | IC50 [4]: 0.143 µM |
